The values that follow come from patent US9987370B2, “Self-assembling drug amphiphiles and methods for synthesis and use” (priority 2012, dated 2018).

For data set [1], the system named is co-culture of KB-3-1 and KB-V1 cervical cancer cells. The following applies: co-culture KB-3-1 and KB-V1, 48 hours.
Description: Cell viability was determined by SRB assay after 48 hours incubation with the appropriate drug-containing media. […] Data are given as mean±s.d. (n=3).
Cell Culture. KB-3-1 and KB-V1 ovarian cancer cells were cultured in DMEM (Invitrogen) containing 10% fetal bovine serum (FBS, Invitrogen) and 1% of antibiotics (Invitrogen), and 1 μg/mL vinblastine was added for KB-V1 to maintain its multidrug resistance. The two cell types were incubated at 37° C. in an Oasis humidified incubator with a 5% CO2 atmosphere (Caron, Marietta, Ohio).
Cytotoxicity Protocol. KB-3-1, KB-V1 or their co-culture (1:1) were seeded onto 96-well plate (5×10^3 cells/well) and allowed to attach overnight. […] Medium containing the same concentration of PXL or/and CPT in the form of free drugs or conjugates (dCPT-Sup35 or dPXL-Sup35) were also used to incubate the cells, with non-treated cells (solvent only) as the control group. After 48 hours incubation, the cell viability was determined using the SRB method according to the manufacturer's protocol (TOX-6, Sigma, St. Louis, Mo.).
For data set [2], the system named is PXL-resistant KB-V1 cervical cancer cells. As to the kind of experiment: Cytotoxicity study of dual drug amphiphiles by SRB. The data set is classed as cell-based. The following applies: KB-V1, 48 hours. How it is done:
(§1) Both cell lines are sensitive to CPT. […] (n=3).
(§2) Cytotoxicity Study. The activity of the synthesized conjugates to prohibit proliferative ability was assessed through the determination of a dose-response relationship against PXL-sensitive and -resistant cervical cancer cell lines—KB-3-1 and KB-V1, respectively. Both cell lines were individually incubated for 48 hours with the conjugates alone or in combination, either individually to determine their sensitivity to the conjugates (FIGS. 46 a-b) and also as a co-culture to mimic a heterogeneous tumor (FIG. 46 c). […] This antagonistic behavior has been previously observed, and is suspected to arise from an up-regulation of anti-apoptosis genes on co-treatment with CPT that would inhibit the mechanism by which PXL exerts its cytotoxicity.

Data set [3] concerns PXL-sensitive KB-3-1 cervical cancer cells. The experiment in a line: Cytotoxicity study of dual drug amphiphiles by SRB. The following applies: KB-3-1, 48 hours. It counts as cell-based. How it is done: as §1, §2
A short description of data set [4]: PXL release study in PBS buffer at 37° C. The data set is classed as physicochemical. How it is done:
FIG. 32 depicts the PXL-buSS-Tau release curve in PBS buffer under 37° C.
PXL release studies were carried out at 100 μM and 5 μM concentrations in PBS buffer at 37° C. (FIG. 32). […] After 2 hrs, around 70% of the PXL-buSS-Tau was cleaved by glutathione at 5 μM while only 40% paclitaxel was released at 100 μM, again illustrating the protective effect that self-assembly into nanostructures has upon the biodegradable linker.

For data set [5], the system named is human breast cancer MCF-7. The data set is classed as cell-based. How it is done:
(§3) To evaluate anti-tumor efficacy, the cytotoxicity of PXL-buSS-Tau towards human breast cancer MCF-7, non-small cell lung cancer A549, and human prostate cancer PC-3 FLU cell lines was determined (FIG. 33).

Data set [6] has as its system non-small cell lung cancer A549. It counts as cell-based, human. On the procedure:
as §3

Data set [7] deals with human prostate cancer PC-3 FLU. The experiment in a line: Cytotoxicity of PXL-buSS-Tau by SRB assay. The data set is classed as cell-based. The following applies: 48 hours. On the procedure: as §3
(In general: The SRB assay estimates cell density from bound dye.)

Data set [8] is described as follows: Critical micellization concentration of CPT drug amphiphiles by a fluorescence method. The data set is classed as physicochemical. The following applies: 10 mM sodium phosphate. How it is done:
FIGS. 5A-5C depicts the fluorometric determination of the CMC values for mCPT-buSS-Tau (a), dCPT-buSS-Tau (b) and qCPT-buSS-Tau (c) in 10 mM sodium phosphate.
The critical micellization concentrations of mCPT-buSS-Tau, dCPT-buSS-Tau and qCPT-buSS-Tau were determined to be 207 nM, 74 nM and 53 nM, respectively, by a fluorescence method (FIG. 5). These very low values are in the range of macromolecular amphiphiles and are an important property of these conjugates. A high value would lead to rapid dissociation of the nanostructure when diluted upon introduction into the bloodstream, whereas a low value would impart greater stability to the assembly during circulation.

Side chains are listed from the residue outwards. Ends that are not written are not given here. Peptide text beside a SMILES is read from it. * marks the point of attachment. X1 = CC(=O)N[C@@H](CSSCCCC(=O)O[C@@H](C(=O)O[C@H]1C[C@@]2(O)[C@@H](OC(=O)c3ccccc3)[C@@H]3[C@]4(OC(C)=O)CO[C@@H]4C[C@H](O)[C@@]3(C)C(=O)[C@H](OC(C)=O)C(=C1C)C2(C)C)[C@@H](NC(=O)c1ccccc1)c1ccccc1)C(=O)*; Paclitaxel(2'-OCO(CH2)3S) = CC(=O)O[C@H]1C(=O)[C@@]2(C)[C@H]([C@H](OC(=O)c3ccccc3)[C@]3(O)C[C@H](OC(=O)[C@H](OC(=O)CCCS*)[C@@H](NC(=O)c4ccccc4)c4ccccc4)C(C)=C1C3(C)C)[C@]1(OC(C)=O)CO[C@@H]1C[C@@H]2O; buSS = disulfanylbutanoate linker

As for `CC[C@@]1(O)C(=O)OCc2c1cc1n(c2=O)Cc2cc3ccccc3nc2-1` [CPT, camptothecin], the activity result in data set [1] is reported as “moderate activity”.

Take `CC(=O)O[C@H]1C(=O)[C@@]2(C)[C@H]([C@H](OC(=O)c3ccccc3)[C@]3(O)C[C@H](OC(=O)[C@H](O)[C@@H](NC(=O)c4ccccc4)c4ccccc4)C(C)=C1C3(C)C)[C@]1(OC(C)=O)CO[C@@H]1C[C@@H]2O` [PXL, paclitaxel, reference compound]: the “sensitivity of cells / activity” value in data set [2] is recorded as “no activity”.

On to `CC(=O)N[C@@H](CSSCCCC(=O)O[C@@H](C(=O)O[C@H]1C[C@@]2(O)[C@@H](OC(=O)c3ccccc3)[C@@H]3[C@]4(OC(C)=O)CO[C@@H]4C[C@H](O)[C@@]3(C)C(=O)[C@H](OC(C)=O)C(=C1C)C2(C)C)[C@@H](NC(=O)c1ccccc1)c1ccccc1)C(=O)NCCCC[C@H](NC(=O)[C@H](CSSCCCC(=O)O[C@@H](C(=O)O[C@H]1C[C@@]2(O)[C@@H](OC(=O)c3ccccc3)[C@@H]3[C@]4(OC(C)=O)CO[C@@H]4C[C@H](O)[C@@]3(C)C(=O)[C@H](OC(C)=O)C(=C1C)C2(C)C)[C@@H](NC(=O)c1ccccc1)c1ccccc1)NC(C)=O)C(=O)NCC(=O)N[C@@H](CC(N)=O)C(=O)N[C@@H](CC(N)=O)C(=O)N[C@@H](CCC(N)=O)C(=O)N[C@@H](CCC(N)=O)C(=O)N[C@@H](CC(N)=O)C(=O)N[C@@H](Cc1ccc(O)cc1)C(=O)N[C@@H](CCCCN)C(=O)N[C@@H](CCCCN)C(N)=O` [dPXL-Sup35] (Ac-C(Paclitaxel(2'-OCO(CH2)3S))K(X1)GNNQQNYKK-NH2), for which the “sensitivity of cells / activity” value in data set [2] is “no activity”. Further, the sensitivity of cells entry in data set [3] is given as “nano-molar sensitivity”.

Consider “PXL-buSS-Tau (Ac-CGVQIVYKK; also: PXL-buSS conjugate, attachment site not given here)”, for which, in data set [4] (5 μM, after 2 hrs, PBS, 37° C., glutathione), the “PXL-buSS-Tau cleaved by glutathione” value was “around 70%”. For the same compound, the “release at 5 μM compared with 100 μM” value in data set [4] (5 μM, presence of glutathione) was “much faster release than that of 100 μM”. In data set [4] (100 μM, after 30 minutes, presence of glutathione), the release of paclitaxel result is “Significant release of paclitaxel”. The paclitaxel released in data set [4] (100 μM, after 2 hrs, PBS, 37° C., glutathione) is listed as 40%. The cytotoxic effect result in data set [5], in data set [6] and in data set [7] was “strong cytotoxic effect” throughout.

“mCPT-buSS-Tau: one camptothecin linked via disulfanylbutanoate (buSS) linker to cysteine-functionalized Tau peptide CGVQIVYKK (C([buSS-camptothecin])GVQIVYKK; not fully specified (C-terminus))” displayed a critical micellization concentration in data set [8] of 207 nM.
